Article PMC11589680 (Nature Communications, 2024)
Values belong to the binder of their own block, whether it stands above or below them.

Experiments:
[1] = target: T1, Retriever complex (VPS35L, VPS26C, VPS29) (human, UniProt Q7Z3J2;O14972;Q9UBQ0-2); experiment: pull-down
[2] = target: T1, Retriever complex (VPS35L, VPS26C, …); experiment: equilibrium pull-down

T1 sequence (Q7Z3J2 whole entry, chain 1 of 2): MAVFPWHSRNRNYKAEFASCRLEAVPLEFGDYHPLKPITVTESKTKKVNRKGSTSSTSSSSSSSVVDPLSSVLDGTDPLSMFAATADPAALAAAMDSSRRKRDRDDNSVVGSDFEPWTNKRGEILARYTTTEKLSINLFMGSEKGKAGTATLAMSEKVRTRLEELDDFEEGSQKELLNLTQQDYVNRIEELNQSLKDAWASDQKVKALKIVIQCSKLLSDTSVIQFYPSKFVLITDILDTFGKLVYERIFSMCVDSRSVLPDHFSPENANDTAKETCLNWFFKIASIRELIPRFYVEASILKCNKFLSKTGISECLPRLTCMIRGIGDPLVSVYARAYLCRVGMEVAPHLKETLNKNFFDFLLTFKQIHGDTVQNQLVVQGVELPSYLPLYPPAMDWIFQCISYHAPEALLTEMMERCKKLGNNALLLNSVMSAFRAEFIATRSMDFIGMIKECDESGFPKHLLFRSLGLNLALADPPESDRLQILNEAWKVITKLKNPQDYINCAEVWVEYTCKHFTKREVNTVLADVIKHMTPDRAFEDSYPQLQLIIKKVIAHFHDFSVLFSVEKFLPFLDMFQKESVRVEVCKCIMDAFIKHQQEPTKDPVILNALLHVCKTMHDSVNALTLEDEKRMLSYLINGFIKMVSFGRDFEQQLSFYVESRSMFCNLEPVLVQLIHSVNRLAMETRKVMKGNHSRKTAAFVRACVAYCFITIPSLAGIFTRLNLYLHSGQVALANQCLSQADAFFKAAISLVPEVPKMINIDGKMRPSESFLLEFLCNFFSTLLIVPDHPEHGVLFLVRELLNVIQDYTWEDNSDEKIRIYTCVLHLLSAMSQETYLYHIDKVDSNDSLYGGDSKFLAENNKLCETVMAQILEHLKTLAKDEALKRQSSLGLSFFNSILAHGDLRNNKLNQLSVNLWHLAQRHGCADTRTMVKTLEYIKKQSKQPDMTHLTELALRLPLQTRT
T1 sequence (O14972 whole entry, chain 2 of 2): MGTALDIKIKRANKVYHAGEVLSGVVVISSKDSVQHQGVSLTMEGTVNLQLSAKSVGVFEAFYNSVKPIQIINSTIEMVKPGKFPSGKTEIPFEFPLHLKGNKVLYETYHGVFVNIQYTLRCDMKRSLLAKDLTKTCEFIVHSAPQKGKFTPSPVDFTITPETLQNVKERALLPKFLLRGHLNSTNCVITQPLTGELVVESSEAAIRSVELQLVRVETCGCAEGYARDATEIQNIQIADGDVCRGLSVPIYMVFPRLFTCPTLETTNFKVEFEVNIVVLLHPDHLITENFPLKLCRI

binding result [1]: binds
B2: untagged full-length SNX17 (natural protein)
chain: MHFSIPETESRSGDSGGSAYVAYNIHVNGVLHCRVRYSQLLGLHEQLRKEYGANVLPAFPPKKLFSLTPAEVEQRREQLEKYMQAVRQDPLLGSSETFNSFLRRAQQETQQVPTEEVSLEVLLSNGQKVLVNVLTSDQTEDVLEAVAAKLDLPDDLIGYFSLFLVREKEDGAFSFVRKLQEFELPYVSVTSLRSQEYKIVLRKSYWDSAYDDDVMENRVGLNLLYAQTVSDIERGWILVTKEQHRQLKSLQEKVSKKEFLRLAQTLRHYGYLRFDACVADFPEKDCPVVVSAGNSELSLQLRLPGQQLREGSFRVTRMRCWRVTSSVPLPSGSTSSPGRGRGEVRLELAFEYLMSKDRLQWVTITSPQAIMMSICLQSMVDELMVKKSGGSIRKMLRRRVGGTLRRSDSQQAVKSPPLLESPDATRESMVKLSSKLSAVSLRGIGSPSTDASASDVHGNFAFEGIGDEDL

binding result [1]: binds
B4: GST-SNX17 CT tail, −4 position to N (peptide)
chain: ASASDVHGNFAFEGIGNEDL

binding result [1]: binds
B5: GST-SNX17 CT tail, −6 position to V (peptide)
chain: ASASDVHGNFAFEGVGDEDL

binding result [1]: binds
B7: GST-SNX17 CT tail, −6 position to L (peptide)
chain: ASASDVHGNFAFEGLGDEDL

The remaining lines, values behind:

B1: GST-SNX17 (natural protein)
chain: B2 chain
binding result [1]: binds

B3: GST-SNX17 CT (GST-tagged tail peptide, last 20 residues of SNX17) (peptide)
chain: ASASDVHGNFAFEGIGDEDL
Kd [2]: ~110 nM

B6: GST-SNX17 CT tail, −4 position to Q (peptide)
chain: ASASDVHGNFAFEGIGQEDL
binding result [1]: binds

B8: GST-tagged CT tail of PATE1 (last 20 amino acids) (peptide)
chain: SVYLVNFRCCRSHDLCNEDL
binding result [1]: binds

B9: GST-tagged CT tail of SNX31 (last 20 amino acids) (peptide)
chain: SKIKIAKDDCVFGNIKEEDL
binding result [1]: binds

B10: GST-tagged CT tail of LRMDA (last 20 amino acids) (peptide)
chain: RYVYYGKNSEGNRFIRDDQL
binding result [1]: binds
